Experiments:
[1] = molecular target: mouse kappa opioid receptor (mORK1) (mouse) (UniProt P33534); experiment: competition vs [3H]U-69,593, COS-1 membranes
[2] = molecular target: rat µ opioid receptor (rat) (UniProt P33535); experiment: competition vs [3H]DAMGO, COS-7 membranes
[3] = molecular target: H278N mutant mouse delta opioid receptor (mouse) (UniProt P32300); experiment: competition vs 3H-naltrindole, COS-7 membranes

| IC50 [1] [nM] | Ki [2] [nM] | Substance | also measured |
| --- | --- | --- | --- |
| 0.2 | – | [D-Ala2, F5Phe4]Dynorphin (1-17)NH2 (from UniProt P01213 207-223) (peptide) | – |
| – | 0.33 | dermorphin (peptide) | – |
| – | – | D-Ala2-deltorphin II (peptide) | Ki [3]: 4 nM |
| 19 | – | [D-Ala2, F5Phe4]Dynorphin (1-13)NH2 (from UniProt P01213 207-219) (peptide) | – |
| – | 56 | morphiceptin (peptide) | – |
| – | 30 | PLO17 (peptide) | – |
